Experimental findings from the RNAGym collection of RNA variant scans (doi:10.7554/elife.80360) are described below.

B1: HDV Ribozyme (parent)
chain: GGCCGGCAUGGUCCCAGCCUCCUCGCUGGCGCCGGCUGGGCAACAUUCCGAGGGGACCGUCCCCUCGGUAAUGGCGAAUGGGACCCA

The variants in the data set derive from B1. The data set can be described thus: self-cleavage, relative activity (ratio to wild type); higher = more cleavage; co-transcriptional.
As to C57G C84G, the self-cleavage is 0.831.
For A56G C66U the value was 0.937; for A56G C66A, 0.909.
As for C57G C62A, the self-cleavage is 0.957.
Regarding G59A C85U, the self-cleavage was 0.796.
The result for G59U U79A reads 0.929.
The result for G59C G73U reads 0.379; that for A56G G74C, 0.125.
For G59C U60C, the self-cleavage was 0.937.
Consider C57A A70U, for which the self-cleavage was 1.25.
With C57A U79G, the self-cleavage came out at 0.831.
As for C58U C63U, the self-cleavage was found to be 1.04.
Regarding A56G G76C, the self-cleavage was found to be 1.16.
Turning to G55U C62A, the self-cleavage is 0.973.
For G55U C62U the value was 0.925; for C58G U72A, 0.594; for G59A C62U, 1.22.
G59C C63U: the self-cleavage turned out to be 1.11.
Turning to C57U U79C, the self-cleavage came to 0.237.
For G59C U65G, the self-cleavage turned out to be 0.95.
Turning to G59C U65A, the self-cleavage amounted to 1.17.
For U60A C64U, the self-cleavage was 1.13.
Regarding A56U U72G, the self-cleavage worked out at 0.734.
As for G59U A87U, the self-cleavage was 1.09.
With G59U A87C, the self-cleavage was 1.17.
Consider C57A G76U, for which the self-cleavage was found to be 1.16.
The result for C58G A77U reads 0.388; that for C58G A77C, 0.361.
As for G55C G67A, the self-cleavage is 1.08.
The result for C58G A70C reads 0.712.
With C57A C85G, the self-cleavage came out at 0.748.
For C57A C85A the value was 1.05.
The result for C57G U72G reads 0.733; that for A56C C63G, 0.608.
In the case of C57A C62A, the self-cleavage is 0.997.
Consider C57U A70U, for which the self-cleavage is 1.05.
For A56C C62A the value was 0.935; for A56U U65C, 1.04.
As for A56U U65G, the self-cleavage was 0.928.
G59A C64U: the self-cleavage is 0.903.
For G59A C64G the value was 0.831.
The result for G55U G67C reads 1.06.
On to A56C G73A, for which the self-cleavage turned out to be 0.658.
For A56C G73U the value was 0.521.
Turning to A56C C61U, the self-cleavage was 0.942.
The result for C58U C61G reads 0.967; that for A56C U72A, 0.95.
Take A56C A77G: the self-cleavage was 1.02.
For G59U G76C, the self-cleavage amounted to 1.08.
Regarding A56U G81C, the self-cleavage stood at 0.312.
For A56U G81U the value was 0.381.
For C58U G73C the value was 0.608; for C58U G73U, 0.343; for C58A U79C, 0.554.
For G55C U65G the value was 1.06; for C57U C63G, 1.12; for C57U C63U, 0.958.
Regarding C58A C66G, the self-cleavage stood at 1.25.
For the variant G55U U72C, the self-cleavage is 0.703.
The result for C57U U69C reads 0.831; that for C57U U69A, 1.15; that for C58G C64U, 1.08.
With C57U A87G, the self-cleavage stood at 0.979.
In the case of C57U A87C, the self-cleavage is 1.17.
The result for G59U A70G reads 1.12; that for G59U A70C, 0.77; that for G59U A70U, 0.923.
As for C58A A70C, the self-cleavage is 1.04.
On to C58A A70G, for which the self-cleavage is 0.807.
For G55U C61G the value was 1.11.
For the variant C57G A71C, the self-cleavage stood at 0.852.
For C57G G67A the value was 0.909.
Regarding A56G C63U, the self-cleavage was 0.682.
As for A56G C63G, the self-cleavage was 0.59.
With G59U C75A, the self-cleavage came to 0.0314.
As to G59U U69C, the self-cleavage was 0.852.
For C58G G76C, the self-cleavage came to 0.914.
C58G G76A: the self-cleavage came to 1.
For C57U U65A, the self-cleavage came out at 0.917.
Turning to C57U U65G, the self-cleavage stood at 0.919.
As to C57A A83U, the self-cleavage amounted to 0.554.
G55C G73C: the self-cleavage worked out at 0.479.
For A56C C66U the value was 0.861.
Regarding A56C C66G, the self-cleavage is 0.99.
For C58A C75G, the self-cleavage came out at 0.116.
For C58U C75G the value was 0.116; for G59A G81A, 0.472; for A56U C75A, 0.0875.
Regarding A56U C75G, the self-cleavage stood at 0.151.
Turning to C57U G80C, the self-cleavage stood at 0.145.
Turning to G59A C84G, the self-cleavage worked out at 0.597.
As to G59C, the self-cleavage is 1.01.
Turning to G59A, the self-cleavage was found to be 1.02.
Regarding G59U, the self-cleavage amounted to 0.997.
On to C58A G67C, for which the self-cleavage came to 0.886.
In the case of C58A G67U, the self-cleavage was 0.946.
Take A56G A83G: the self-cleavage stood at 0.831.
As to A56G A83U, the self-cleavage was found to be 0.684.
Consider C57G A78C, for which the self-cleavage turned out to be 0.0959.
Take C57A A71U: the self-cleavage was 0.929.
Consider G59A A87U, for which the self-cleavage came out at 0.974.
Take C58A G81A: the self-cleavage was found to be 0.514.
For G59U U65C, the self-cleavage turned out to be 1.15.
In the case of C57A G80A, the self-cleavage worked out at 0.218.
Take C57A G80U: the self-cleavage is 0.253.
G59C G67U: the self-cleavage amounted to 1.09.
As to G59C G67A, the self-cleavage stood at 1.06.
As to G59A U72C, the self-cleavage stood at 0.607.
A56G U60G: the self-cleavage amounted to 0.831.
As to G59C G82U, the self-cleavage is 0.489.
As for G59C A70G, the self-cleavage stood at 1.06.
As for C58U U65A, the self-cleavage came to 1.17.
As for G59C C66U, the self-cleavage amounted to 0.81.
As for C58A U65G, the self-cleavage is 1.05.
For C57G the value was 1.02; for C57A, 1.05.
As for C57U, the self-cleavage worked out at 0.993.
For C57U C58U the value was 1.3.
For the variant A56C C64G, the self-cleavage was 0.831.
The result for C58U U79C reads 0.38; that for C58U U79G, 0.612; that for G59U A83U, 0.486.
The result for G59U A83G reads 0.732; that for G59C A78U, 0.155; that for A56C U65G, 0.985.
For the variant C58A G76A, the self-cleavage was 1.02.
The result for C57U G59U reads 1.2; that for C58U C66G, 0.931.
C58A A87C: the self-cleavage is 1.09.
On to C58A A87G, for which the self-cleavage came to 1.11.
Take C58A A87U: the self-cleavage was 1.
The result for C58A G59U reads 0.89.
On to G55C G81U, for which the self-cleavage turned out to be 0.256.
As to C58G C86A, the self-cleavage came out at 0.727.
In the case of A56U C61U, the self-cleavage was determined as 0.755.
Turning to C57A U69A, the self-cleavage was found to be 0.969.
C57A U69C: the self-cleavage worked out at 0.892.
Regarding A56G G80U, the self-cleavage came out at 0.165.
With A56G C84G, the self-cleavage is 0.598.
The result for C57U C66A reads 0.878; that for C57U C66G, 1.07; that for G59A G82U, 0.467.
Consider C58A G80A, for which the self-cleavage is 0.544.
In the case of G59A A78C, the self-cleavage is 0.282.
On to C57A C66G, for which the self-cleavage came to 0.985.
G59U C63G: the self-cleavage was 0.767.
Take G59U C63U: the self-cleavage worked out at 1.04.
Take G59C G81C: the self-cleavage stood at 0.261.
Consider C57G G80U, for which the self-cleavage worked out at 0.25.
With C57U C61U, the self-cleavage amounted to 0.843.
In the case of A56C A70G, the self-cleavage is 1.05.
A56C A70C: the self-cleavage worked out at 1.12.
For the variant A56C A70U, the self-cleavage amounted to 1.16.
With A56C C86U, the self-cleavage amounted to 1.03.
The result for C58G U79G reads 0.776; that for G59U A71C, 0.895; that for G55U U79A, 0.635.
In the case of C58U G82U, the self-cleavage worked out at 0.34.
Regarding G59U C86U, the self-cleavage came out at 0.852.
For the variant G55U G80A, the self-cleavage was determined as 0.477.
C57G U60A: the self-cleavage amounted to 0.987.
The result for C57G U60C reads 1.07; that for A56G C75U, 0.17; that for A56U G59A, 0.926.
Turning to G55C C86U, the self-cleavage came to 1.12.
For G59A C63U the value was 1.13; for G59A C63G, 0.805.
